Patent US20230235058A1 (OXFORD UNIVERSITY INNOVATION, published 2023)

T1: soluble cynomolgus macaque BTLA extracellular domain (BTLA K31-R151) (cynomolgus macaque)
T1 construct: also called cynomolgus BTLA; cyno BTLA
T1 chain: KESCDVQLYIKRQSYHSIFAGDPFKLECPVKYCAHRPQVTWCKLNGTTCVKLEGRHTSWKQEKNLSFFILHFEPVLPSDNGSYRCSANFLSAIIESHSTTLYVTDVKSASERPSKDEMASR

T2: full length cynomolgus BTLA expressed on Jurkat cells (cynomolgus monkey, UniProt Q7Z6A9 31-289 (human entry))
T2 construct: also called cynomolgus BTLA expressing cells
T2 chain: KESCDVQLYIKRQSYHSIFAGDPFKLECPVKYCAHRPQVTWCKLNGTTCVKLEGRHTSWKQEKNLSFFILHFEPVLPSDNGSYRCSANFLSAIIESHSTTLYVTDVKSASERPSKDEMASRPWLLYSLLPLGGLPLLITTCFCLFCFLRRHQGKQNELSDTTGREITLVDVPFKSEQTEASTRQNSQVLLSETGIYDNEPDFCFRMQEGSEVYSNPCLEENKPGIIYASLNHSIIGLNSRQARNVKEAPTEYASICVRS


How the values were obtained:
[1] = target: T1, soluble cynomolgus macaque BTLA …; test: SPR (Biacore T200), single cycle kinetics at 37 C, antibody captured on anti-mouse IgG, soluble BTLA extracellular domain as analyte
Protocol: (§1) Mouse antibody capture kit (GE Healthcare) was used to coat a Series S CMS Sensor Chip (GE Healthcare) with polyclonal anti-mouse IgG. Anti-BTLA antibody was then captured onto the biosensor surface and a negative control antibody (clone Mopc21; Biolegend) captured in the reference channel. […] Association and dissociation rates were fitted using BiaEvaluation Software (GE Healthcare) after reference and blank subtractions, and dissociation constants were calculated (FIG. 1b).

[2] = target: T2, full length cynomolgus BTLA expressed …; test: flow cytometry, BTLA Jurkat cells
Protocol: A lentiviral transfection system was used to express full length human or cynomolgus BTLA in a Jurkat T cell line. 1×10⁵ cells per well were plated in 96 well U-bottom plates. […] Secondary antibody was incubated for 30 minutes on ice, then cells were washed and resuspended in FACS buffer for analysis on a flow cytometer. The geometric mean fluorescent intensity of secondary antibody was plotted for each concentration and the EC50 for receptor binding calculated by non-linear curve fitting using GraphPad Prism software.
The ability of the BTLA agonist antibodies of the present invention to bind to human or cynomolgus BTLA expressed on the cell surface was assessed by flow cytometry. A lentiviral transfection system was used to express full length human or cynomolgus BTLA in a Jurkat T cell line. 1×10⁵ cells per well were plated in 96 well U-bottom plates.

S47R = target: T3, S47R (Mus musculus); test: flow cytometry, GFP-positive transfected HEK-293T cells, fluorochrome-conjugated antibody at 10 ug/ml, Geo-mean relative to wild type;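 also: cells express mutant human BTLA ectodomain fused to murine CD28 transmembrane and cytoplasmic parts, stained 48 h after transfection for 1 h at 4 °C alongside a Live/Dead dye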
T3 construct: transmembrane and intracellular regions; also called BTLA S47R construct
Protocol: (§2) Constructs encoding the human extracellular region of BTLA with the transmembrane and intracellular regions of murine CD28 were cloned into the bi-cistronic mammalian expression vector pGFP2-n2 (BioSignal Packard Ltd), which also encodes GFP. […] Mock and no-transfection controls were included with each experiment. Cells were harvested at 48 hours and stained with fluorochrome-conjugated anti-BTLA antibody at 10 μg/ml, alongside a Live/Dead marker, in PBS, 0.05% azide, 2% FCS (FACS buffer) for 1 h at 4° C. Cells were washed, pelleted and resuspended in 200 μl FACS buffer before being analysed on a BD FACSCanto flow cytometer. […] For each mutant the Geo-mean of anti-BTLA antibody binding to transfected cells was expressed as a percentage of binding to the wild-type receptor (FIG. 3b). A panel of anti-BTLA antibodies was assessed and any mutation that eliminated binding of all antibodies was excluded from the analysis, on the assumption that such mutations lead to drastic changes in protein folding or expression rather than indicating an antibody epitope.

H68E = target: T4, H68E (Mus musculus); test: as above
T4 construct: transmembrane and intracellular regions; also called BTLA H68E construct
Protocol: as §2

Q120R = target: T5, Q120R (Mus musculus); test: as above
T5 construct: transmembrane and intracellular regions; also called BTLA Q120R construct
Protocol: as §2

E45R = target: T6, E45R (Mus musculus); test: as above
T6 construct: transmembrane and intracellular regions; also called BTLA E45R construct
Protocol: as §2

D35R = target: T7, D35R (Mus musculus); test: as above
T7 construct: transmembrane and intracellular regions; also called BTLA D35R construct
Protocol: as §2

P53R = target: T8, P53R (Mus musculus); test: as above
T8 construct: transmembrane and intracellular regions; also called BTLA P53R construct
Protocol: as §2

E92R = target: T9, E92R (Mus musculus); test: as above
T9 construct: transmembrane and intracellular regions; also called BTLA E92R construct
Protocol: as §2

Q86R = target: T10, Q86R (Mus musculus); test: as above
T10 construct: transmembrane and intracellular regions; also called BTLA Q86R construct
Protocol: as §2

Q43R = target: T11, Q43R (Mus musculus); test: as above
T11 construct: transmembrane and intracellular regions; also called BTLA Q43R construct
Protocol: as §2

K137E = target: T12, K137E (Mus musculus); test: as above
T12 construct: transmembrane and intracellular regions; also called BTLA K137E construct
Protocol: as §2

E57R = target: T13, E57R (Mus musculus); test: as above
T13 construct: transmembrane and intracellular regions; also called BTLA E57R construct
Protocol: as §2

A64R = target: T14, A64R (Mus musculus); test: as above
T14 construct: transmembrane and intracellular regions; also called BTLA A64R construct
Protocol: as §2

E55R = target: T15, E55R (Mus musculus); test: as above
T15 construct: transmembrane and intracellular regions; also called BTLA E55R construct
Protocol: as §2

Y132R = target: T16, Y132R (Mus musculus); test: as above
T16 construct: transmembrane and intracellular regions; also called BTLA Y132R construct
Protocol: as §2

D52R = target: T17, D52R (Mus musculus); test: as above
T17 construct: transmembrane and intracellular regions; also called BTLA D52R construct
Protocol: as §2

T78R = target: T18, T78R (Mus musculus); test: as above
T18 construct: transmembrane and intracellular regions; also called BTLA T78R construct
Protocol: as §2

N65R = target: T19, N65R (Mus musculus); test: as above
T19 construct: transmembrane and intracellular regions; also called BTLA N65R construct
Protocol: as §2

N108R = target: T20, N108R (Mus musculus); test: as above
T20 construct: transmembrane and intracellular regions; also called BTLA N108R construct
Protocol: as §2

[3] = target: T1, soluble cynomolgus macaque BTLA …; test: SPR 37C, mAb captured, BTLA ECD analyte;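 also: Anti-BTLA mouse antibodies captured on a sensor chip via polyclonal anti-mouse IgG, isotype control antibody in reference channel, rates fitted after reference and blank subtraction to derive Kd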
Protocol: as §1

T6 sequence (Q7Z6A9 31-151 E45R): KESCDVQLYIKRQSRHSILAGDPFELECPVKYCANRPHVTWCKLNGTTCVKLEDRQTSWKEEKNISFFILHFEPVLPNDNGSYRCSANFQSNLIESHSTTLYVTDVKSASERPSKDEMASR
T18 sequence (Q7Z6A9 31-151 T78R): as the sequence (Q7Z6A9 31-151 E45R) above, with R15E, T48R counted along it
T16 sequence (Q7Z6A9 31-151 Y132R): as the sequence (Q7Z6A9 31-151 E45R) above, with R15E, Y102R counted along it
T20 sequence (Q7Z6A9 31-151 N108R): as the sequence (Q7Z6A9 31-151 E45R) above, with R15E, N78R counted along it
T8 sequence (Q7Z6A9 31-151 P53R): as the sequence (Q7Z6A9 31-151 E45R) above, with R15E, P23R counted along it
T3 sequence (Q7Z6A9 31-151 S47R): as the sequence (Q7Z6A9 31-151 E45R) above, with R15E, S17R counted along it
T7 sequence (Q7Z6A9 31-151 D35R): as the sequence (Q7Z6A9 31-151 E45R) above, with D5R, R15E counted along it
T12 sequence (Q7Z6A9 31-151 K137E): as the sequence (Q7Z6A9 31-151 E45R) above, with R15E, K107E counted along it
T13 sequence (Q7Z6A9 31-151 E57R): as the sequence (Q7Z6A9 31-151 E45R) above, with R15E, E27R counted along it
T11 sequence (Q7Z6A9 31-151 Q43R): as the sequence (Q7Z6A9 31-151 E45R) above, with Q13R, R15E counted along it

Binder | koff [1] | kon [1] | EC50 [2] | binding as % of binding to wild-type BTLA (S47R) | binding as % of binding to wild-type BTLA (H68E) | binding as % of binding to wild-type BTLA (Q120R) | binding as % of binding to wild-type BTLA (E45R) | binding as % of binding to wild-type BTLA (D35R) | binding as % of binding to wild-type BTLA (P53R) | binding as % of binding to wild-type BTLA (E92R) | binding as % of binding to wild-type BTLA (Q86R) | binding as % of binding to wild-type BTLA (Q43R) | binding as % of binding to wild-type BTLA (K137E) | binding as % of binding to wild-type BTLA (E57R) | binding as % of binding to wild-type BTLA (A64R) | binding as % of binding to wild-type BTLA (E55R) | binding as % of binding to wild-type BTLA (Y132R) | binding as % of binding to wild-type BTLA (D52R) | binding as % of binding to wild-type BTLA (T78R) | binding as % of binding to wild-type BTLA (N65R) | other results
11.5.1 (antibody, V domains shown, mouse IgG1k hybridoma antibody) VH: EVQLQESGPSLVKPSQTLSLTCSVTGDSITSAYWNWIRKFPGNKLEYMGYISYSGSTYFNPSLKSRISITRNTSKNQYYLQLNSVTTEDTATYYCARSHYYGYYFDYWGHGTTLTVSS VL: DIVLTQSPASLAVSLGQRATISCRASETIDSYGDSLMHWYQQKAGQPPKLLIYRASNLESGIPARFSGSGSRTDFTLTINPVEADDVATYYCQQTDEDPYTFGGGTKLEIK | 0.000952 s⁻¹ | 957000 M⁻¹ s⁻¹ | 5.7 pM | 108% | 81.3% | 89.9% | 108% | 71.2% | 117% | 73.3% | 132% | 55.2% | 55.6% | 108% | 148% | 60.5% | 68.1% | 129% | 109% | 87.9% | Kd [1]: 995 pM; binding as % of binding to wild-type BTLA (N108R): 171%; Kd [3]: 990 pM
2.8.6 (antibody, V domains shown, mouse IgG1k hybridoma antibody; also called clone 2.8.6) VH: QVQLKESGPGLVAPSQSLSITCTVSGFSLTTYGVHWVRQSPGKGLEWLGVMWPGGRTSYNPAPMSRLSISKDNSKSQVFLKMNSLQTDDTAMYYCVRGDYEYDYYAMDYWGQGTSVTVSS VL: QIVLSQSPAILSASPGEKVTMTCRASSSVSYMHWYQQKPGSSPKPWIYATSNLASGVPARFSGSGSGTSYSLTISRMEAEDAATYYCHQWSSNPYTFGGGTKLEIK | 0.00627 s⁻¹ | 795000 M⁻¹ s⁻¹ | 160 pM | 99.7% | 126% | 76.3% | 96.3% | 83.7% | 55.6% | 62.2% | 97.9% | 87.9% | 80.1% | 76.3% | 93.5% | 52% | 68.2% | 70.2% | 95.3% | 89% | binding as % of binding to wild-type BTLA (N108R): 107%; Kd [3]: 7890 pM
